Assay results as given in US20150344565A1.
Where “and” joins values, the source holds several entries; their conditions need not be identical. Identical values can stand only once.

How the values were obtained:
[1] = biological target: Glycosylated recombinant human GM-CSF expressed from human 293 cells (human) (UniProt P04141); test: ELISA on GM-CSF-coated wells, glycosylated GM-CSF, exp 1
[2] = biological target: Non-glycosylated recombinant human GM-CSF expressed in E. coli (human) (UniProt P04141); test: ELISA on GM-CSF-coated wells, non-glycosylated GM-CSF, exp 2
[3] = biological target: Non-glycosylated recombinant human GM-CSF expressed in E. coli (human) (UniProt P04141); test: cell-based or functional assay
[4] = biological target: Non-glycosylated recombinant human GM-CSF expressed in E. coli (human) (UniProt P04141); test: ELISA on GM-CSF-coated wells, non-glycosylated GM-CSF, exp 1
[5] = biological target: Glycosylated recombinant human GM-CSF expressed from human 293 cells (human) (UniProt P04141); test: SPR (Biacore 3000) at 37 °C, antibody captured on anti-human F(ab')2, GM-CSF as analyte, 1:1 global fit

With “Ab2, chimeric IgG1k antibody having variable regions from the mouse antibody LMM102” the EC50 [1] was 0.387 nM, the EC50 [2] was 0.433 nM and the IC50 for inhibition of GM-CSF induced IL-8 expression (U937 cells), experiment C [3] was 2.2 nM and 343 ng/ml. For the same substance, the EC50 [4] was 0.4 nM, the Kd [5] was 0.0305 nM and the koff [5] was 2.2e-05 s⁻¹. It also gave a kon [5] of 720000 M⁻¹ s⁻¹.
